Results reported in publication PMC6748592.

Biological target: CD52 peptide mimotope (…) (human)
Experiment: SPR

B1: MAB1 light chain N33D mutant (antibody, V domains shown)
VH: EVQLVESGGGLVQPGGSLRLSCAASGFPFSNYWMNWVRQAPGKGLEWVGQIRLKSNNYATHYAESVKGRFTISRDDSKNSLYLQMNSLKTEDTAVYYCTPIDYWGQGTTVTVSS
VL: DIVMTQTPLSLSVTPGQPASISCKSSQSLLYSDGKTYLNWVLQKPGQSPQRLIYLVSKLDSGVPDRFSGSGSGTDFTLKISRVEAEDVGVYYCVQGSHFHTFGQGTKLEIK
Kd: 1250 nM
